According to the supplement of paper PMC9170038:

Tested on: MS2 coat protein
Experiment: apparent KD of MS2 coat protein; designed switch direction (-1 OFF switch, 1 ON switch): -1; higher = weaker reporter binding
In short: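 The reported apparent KD is a per-design median over clusters, from curve fits of normalised cluster fluorescence. Protein titrations used SNAP-549-labelled MS2 coat protein, doubled from 0.7 or 1.5 nM to 3 µM, in Tris-HCl pH 7.5 buffer with KCl, MgCl2, BSA, DTT, tRNA and Tween-20, with no input, 200 uM small-molecule ligand, or an oligonucleotide input. The RNA switches were transcribed on Illumina chips by stalled E. coli RNA polymerase.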

[1] = Eterna round: R95, input ligand: microRNA oligo, concentration not stated
[2] = Eterna round: R95, input ligand: FMN 200 uM
[3] = Eterna round: R95, input ligand: none
[4] = input ligand: microRNA oligo, concentration not stated

Sequence: GUGACUCAGCAGGAUAUACGCGCGAGUGCGUAAGUAGAAGGGUUGACAUGAGGAUCACCCAUGUAGAACCACAC [Eternabot (L2) Solution 18] (Eterna round: R97, puzzle: Exclusion 6)
- apparent KD of MS2 coat protein (input ligand: FMN 200 uM): 19.9 nM
- apparent KD of MS2 coat protein (input ligand: none): 18.4 nM

Sequence: GUGCAAUGAGGAUAUACGUUGGUGGGCAUCUGUGUGCUCCUACAUGAGGAUCACCCAUGUAGAAGGCAUGUCAC [LRO-Excl2-19] (puzzle: Exclusion 2)
- apparent KD of MS2 coat protein [1]: 11.7 nM

Sequence: GUGGUACAUGAGGAUCACCCAUGUUAGGAUAUCGCGUGAGGUAAAACUUACACACACACGAGAAGGGACGACAU (puzzle: Exclusion 1)
- apparent KD of MS2 coat protein [1]: 64.4 nM

Sequence: GUGGUGACAGGAUAUACAUGAGGAUCACCCAUGUGAGGAGGACGAGACAGGUGAAGGAGUAGAAGGGUCAGAGA [JR_Exclu3_Sub026] (puzzle: Exclusion 3)
- apparent KD of MS2 coat protein [2]: 134 nM
- apparent KD of MS2 coat protein [1]: 61.9 nM
- apparent KD of MS2 coat protein [3]: 95.6 nM

Sequence: GUGGUGGGUUUUCCGAGUAACAUGAGGAUCACCCAUGUAUUAGUUUGAUGUAUCAAGCGAAUGGCUCGUCUUAUAUA [JR_SV3TOV1_Sub045] (puzzle: Sensor v3, turn-off variant 1)
- apparent KD of MS2 coat protein [2]: 128 nM
- apparent KD of MS2 coat protein [1]: 14.5 nM
- apparent KD of MS2 coat protein [3]: 107 nM

Sequence: GUGUACAGAGGAUAUACACGAGUAGUUACGAAAGUAACUAUACAUGAGGAUCACCCAUGUAGAAGGCUGUACAC [Dot plot directed v2] (puzzle: Exclusion 2)
- apparent KD of MS2 coat protein [1]: 14.5 nM

Sequence: GUGUACUGAGGAUAUACAUGAGGAUCACCCAUGUGAAUAAGAUAGAAUAAGAUAAAGUGUAGAAGGCAGAGUGU [Excluse me!!! 2 - Jieux - Exclusion 3] (puzzle: Exclusion 3)
- apparent KD of MS2 coat protein [1]: 36.9 nM

Sequence: GUGUAGAUAGGAUAUGCAUGAGUCUAGCGAAGCUAGGCUCUACAUGAGGAUCACCCAUGUAGAAGGGUCUACAC [Dot plot directed A v13] (puzzle: Exclusion 2)
- apparent KD of MS2 coat protein [1]: 18.6 nM

Sequence: GUGUAGGCAGGAUAUACAUGAGGAUCACCCAUGUGAAUAAGAUAGAAUAAGAUAAAGUGUAGAAGGGUUAGUGU [Excluse me!!! 23 - Jieux - Exclusion 3] (puzzle: Exclusion 3)
- apparent KD of MS2 coat protein [1]: 31.7 nM

Sequence: GUUAAGGUAGGAUAUACGAUAAUAUAGGGUAGAAUAUUAACACAUGAGGAUCACCCAUGUAGAAGGACCAAUUG [Mat - Exclusion 2 - Mod of my Tesla design - D51] (puzzle: Exclusion 2)
- apparent KD of MS2 coat protein [2]: 38.7 nM
- apparent KD of MS2 coat protein [1]: 21.1 nM
- apparent KD of MS2 coat protein [3]: 22.8 nM

Sequence: GUUAAUUGUCACAUGGGUGACAUGAGGAUCACCCAUGUCACAAGCUUUUUGCUCGUCUUAUAAUUAACCCAUGUGAC [Stov1/12-A2] (Eterna round: R97, puzzle: Sensor, turn-off variant 1)
- apparent KD of MS2 coat protein (input ligand: FMN 200 uM): 14.7 nM
- apparent KD of MS2 coat protein (input ligand: none): 13.9 nM

Sequence: GUUCUUCCUGUGAGGAUAUCCAUGUGUCGGUGUGUGGAGAAGGUACAUGAGGAUCACCCAUGUCACCCGCGUUA (Eterna round: R97, puzzle: Brourd's mod of Exclusion 4)
- apparent KD of MS2 coat protein (input ligand: FMN 200 uM): 24.3 nM
- apparent KD of MS2 coat protein (input ligand: none): 19.2 nM

Sequence: GUUGCGUUUGUGAGGAUAUGCUGUUCCUUGGUUCGGCAGAAGGCACAUGAGGAUCACCCAUGUGGUGUCGUUCC [salish99_Bmod_ex4_053] (puzzle: Brourd's mod of Exclusion 4)
- apparent KD of MS2 coat protein [1]: 14.6 nM

Sequence: GUUGCUACUGAGGAUAUUAUACUACCCGACUGAUAAGAAGGCAGUACAUGAGGAUCACCCAUGUGGGUAGCCAC [Polaris13] (Eterna round: R97, puzzle: Exclusion 6)
- apparent KD of MS2 coat protein (input ligand: FMN 200 uM): 25.5 nM
- apparent KD of MS2 coat protein (input ligand: none): 21.7 nM

Sequence: GUUGCUACUGAGGAUAUUAUUUUACUCGACUGAUAAGAAGGCAGUACAUGAGGAUCACCCAUGUGGGUAGCCAG [Polaris16] (Eterna round: R97, puzzle: Exclusion 6)
- apparent KD of MS2 coat protein (input ligand: FMN 200 uM): 64.7 nM
- apparent KD of MS2 coat protein (input ligand: none): 19.3 nM

Sequence: GUUGUAUGAGGAUAUACAUGAGGAUCACCCAUGUGUGUUGUGAACGACGUACGUUUAUGUAGAAGGCGUGCGGC [-24.9, -21.8 kcal, 24% A] (Eterna round: R97, puzzle: Exclusion 3)
- apparent KD of MS2 coat protein (input ligand: FMN 200 uM): 18.2 nM
- apparent KD of MS2 coat protein (input ligand: none): 17.9 nM

Sequence: GUUGUUUAUGUAGGAUAUGCCUGGCGUGCCUUAGCAGAAGGACAUGAGGAUCACCCAUGUAUUGCGGUCUGCGUUCAGAUCGCU [salish99_ExNG1_r4_021] (Eterna round: R96, puzzle: Exclusion NG 1)
- apparent KD of MS2 coat protein (input ligand: FMN 200 uM): 37 nM
- apparent KD of MS2 coat protein [4]: 25.1 nM
- apparent KD of MS2 coat protein (input ligand: none): 29.6 nM

Sequence: GUUUACAAGCUAAGAUCCUACAUGAGGAUCACCCAUGUGGUCCGGUGACGUGAGUCACCGGACUUAGCUCGUCUUGC [salish99_S_TOV1_R5_089] (Eterna round: R97, puzzle: Sensor, turn-off variant 1)
- apparent KD of MS2 coat protein (input ligand: FMN 200 uM): 36 nM
- apparent KD of MS2 coat protein (input ligand: none): 37.2 nM

Sequence: GUUUGAUGAGGAUAUCGAGGUUAGUACAUGAGGAUCACCCAUGUUAUCCAGGUGUCGGUUCGAGAAGGUAUUGGAC [LRO-Ex5-15] (puzzle: Exclusion 5)
- apparent KD of MS2 coat protein [1]: 18.6 nM

Sequence: GUUUUCAGACGGAGAUCCUACAUGAGGAUCACCCAUGUCUCACUAGUUUUUUGCUCGUCUUAUCCUCCUCUGUUCUC [Elimod 29 - Jieux - Sensor, turn-off variant 1] (Eterna round: R97, puzzle: Sensor, turn-off variant 1)
- apparent KD of MS2 coat protein (input ligand: FMN 200 uM): 413 nM
- apparent KD of MS2 coat protein (input ligand: none): 926 nM

Sequence: GUUUUCAGACGGAGAUCCUACAUGAGGAUCACCCAUGUCUCUCUUGCUAAUUGCUCGUCUUAUUCUCCUCUGUUCUC [Elimod 37 - Jieux - Sensor, turn-off variant 1] (Eterna round: R97, puzzle: Sensor, turn-off variant 1)
- apparent KD of MS2 coat protein (input ligand: FMN 200 uM): 80.8 nM
- apparent KD of MS2 coat protein (input ligand: none): 100 nM

Sequence: UAAAACGUAGGAUAUGCGGAAAAUAACUUGAGGAUCACCCAAGUGUCCGAGAGGCUAAAUGCAGAAGGACGAGAUC [Edxedi] (Eterna round: R97, puzzle: Exclusion 5)
- apparent KD of MS2 coat protein (input ligand: FMN 200 uM): 179 nM
- apparent KD of MS2 coat protein (input ligand: none): 105 nM

Sequence: UAAAAGACAGGAUAUACUAACAACGACUUGAGGAUCACCCAAGUGGUAAGAGUCGAUCAUGUAGAAGGGUUAAAAC [Atsoce] (Eterna round: R97, puzzle: Exclusion 5)
- apparent KD of MS2 coat protein (input ligand: FMN 200 uM): 74.3 nM
- apparent KD of MS2 coat protein (input ligand: none): 28 nM

Sequence: UAAAAGCGAGGAUAUACAAACAGGUCCAAAACAUGUCUUGGACAUGAGGAUCACCCAUGUAGAAGGCGUAAAAG [Anleain] (Eterna round: R97, puzzle: Exclusion 2)
- apparent KD of MS2 coat protein (input ligand: FMN 200 uM): 558 nM
- apparent KD of MS2 coat protein (input ligand: none): 90.6 nM

Sequence: UAAAAGCUAGGAUAUACAUGAGGAUCACCCAUGUAAUCUCUCACUUACACGGAGGAUCGUAGAAGGAGCACAAA [Inlaveti] (puzzle: Exclusion 3)
- apparent KD of MS2 coat protein [1]: 20.3 nM

Sequence: UAAAAGGGAGGAUAUACUUGAGGAUCACCCAAGUGAUCCAGACCCUGAACGGUCUAUAGUAGAAGGCCCAAUAA [Teinma] (Eterna round: R97, puzzle: Exclusion 3)
- apparent KD of MS2 coat protein (input ligand: FMN 200 uM): 152 nM
- apparent KD of MS2 coat protein (input ligand: none): 58 nM

Sequence: UAAAAUAGUGUGAGGAUAUGCUGGUCCUUGGAUCAGCAGAAGGCACAUGAGGAUCACCCAUGUAGAUAAUAAUA [Mat - Exclusion 4 - JL Mod - D26] (puzzle: Brourd's mod of Exclusion 4)
- apparent KD of MS2 coat protein [2]: 189 nM
- apparent KD of MS2 coat protein [1]: 49.6 nM
- apparent KD of MS2 coat protein [3]: 78 nM

Sequence: UAAAGUAUAUAGGAUAUCUAGCUGGAAACAGCUAGAGAAGGAUGUACAUGAGGAUCACCCAUGUAAAACCUCAA [Ex6/17-A1] (Eterna round: R97, puzzle: Exclusion 6)
- apparent KD of MS2 coat protein (input ligand: FMN 200 uM): 45.4 nM
- apparent KD of MS2 coat protein (input ligand: none): 18.3 nM

Sequence: UAAAGUAUAUAGGAUAUCUAGCUGGAUACAGCUAGAGAAGGAUGUACAUGAGGAUCACCCAUGUAGAUCUCAAA [Ex6/15-A1] (Eterna round: R97, puzzle: Exclusion 6)
- apparent KD of MS2 coat protein (input ligand: FMN 200 uM): 17.4 nM
- apparent KD of MS2 coat protein (input ligand: none): 14.8 nM

Sequence: UAAAUUAUAGUAAGGAUAUCAGUCGCGAAAGUGGCUGAGAAGGUACAUGAGGAUCACCCAUGUGAAAUAAGAAU [Mod of Zala 17 - Jieux - Brourd's Mod of Exclusion 4] (Eterna round: R97, puzzle: Brourd's mod of Exclusion 4)
- apparent KD of MS2 coat protein (input ligand: FMN 200 uM): 25.7 nM
- apparent KD of MS2 coat protein (input ligand: none): 20 nM

Sequence: UAACAGUAAGGAUAUCCAGAUCCAGACAUGAGGAUCACCCAUGUCAUAUACCUUUGACACGGAGAAGGUACGAAAA [EX5 A.4] (Eterna round: R97, puzzle: Exclusion 5)
- apparent KD of MS2 coat protein (input ligand: FMN 200 uM): 52.3 nM
- apparent KD of MS2 coat protein (input ligand: none): 52.2 nM

Sequence: UAACAUGUCUGAGGAUAUCUGCACGAUUAGUGCAGAGAAGGCAGAACAUGAGGAUCACCCAUGUAGAUCAUUAAUUAAUUAAUU [ENG1/7-B1] (Eterna round: R96, puzzle: Exclusion NG 1)
- apparent KD of MS2 coat protein (input ligand: FMN 200 uM): 712 nM
- apparent KD of MS2 coat protein [4]: 288 nM
- apparent KD of MS2 coat protein (input ligand: none): 344 nM

Sequence: UAACCUAUUGUCAGGAUAUCUACGUGGUAUCAUGAGGAGAAGGGACAUGAGGAUCACCCAUGUGGAAGGGAAAA [Beques] (puzzle: Brourd's mod of Exclusion 4)
- apparent KD of MS2 coat protein [2]: 60.2 nM
- apparent KD of MS2 coat protein [1]: 31.1 nM
- apparent KD of MS2 coat protein [3]: 48.3 nM
